Experimental data: patent US20250215104A1 (WALDEN BIOSCIENCES, published 2025)
Numbering of substitutions follows the chain as printed.

B1: suPAR_DB02_D01 (scFv, V domains shown)
VH: QVQLVQSGAEVKKPGASVKVSCKASGYTFTDYYMHWVRQAPGQGLEWMGWIDHENGNTIYDQKFQGRVTMTRDTSTSTVYMELSSLRSEDTAVYYCARGYDVDWFVYWGQGTLVTVSS
VL: DIQMTQSPSSLSASVGDRVTITCSARSSVSYMYWYQQKPGKAPKLLIYRTSNLASGVPSRFSGSGSGTDFTLTISSLQPEDFATYYCQQYHSYPPTFGGGTKVEIK
notes: scFv clone from phage display
B2: suPAR_DB02_E06 (scFv, V domains shown)
VH: B1 VH with D31G, H53P
VL: B1 VL
notes: scFv clone from phage display
B3: suPAR_DB02_D10 (scFv, V domains shown)
VH: B1 VH with D31G, H53P, N55G
VL: B1 VL
notes: scFv clone from phage display
B4: suPAR_DB02_E04 (scFv, V domains shown)
VH: B1 VH with D31N, M34I, H35Q
VL: B1 VL
notes: scFv clone from phage display
B5: suPAR_DB02_E11 (scFv, V domains shown)
VH: B1 VH with Y27G, T30S, D31N
VL: B1 VL with S24R, S27Q, N52S
notes: scFv clone from phage display
B6: suPAR_DB02_D06 (scFv, V domains shown)
VH: B1 VH with Y27D, T30A, D31N, D52I, H53P, E54N, N55S, N57D, I59N, D61A
VL: B1 VL with N52S, A54Q
notes: scFv clone from phage display
B7: suPAR_DB02_F07 (scFv, V domains shown)
VH: B1 VH with D31G, M34V, H53P, N55G
VL: B1 VL with S24R, S27Q, A54Q
notes: scFv clone from phage display
B8: suPAR_DB02_H02 (scFv, V domains shown)
VH: B1 VH with D31G, M34L, H53P, N57S
VL: B1 VL
notes: scFv clone from phage display
B9: suPAR_DB02_F06 (scFv, V domains shown)
VH: QVQLVQSGAEVKKPGASVKVSCKASGFNFTDYYIHWVRQAPGQGLEWMGWIDPNSGSTNYAQNFQGRVTMTRDTSTSTVYMELSSLRSEDTAVYYCARGYMVDWFVYWGQGTLVTVSS
VL: B1 VL
notes: scFv clone from phage display
B10: suPAR_DB02_G10 (scFv, V domains shown)
VH: B1 VH with D31N, H53P, N57S
VL: B1 VL with S24R, S27Q, A54E, S55T
notes: scFv clone from phage display
B11: suPAR_DB02_E09 (scFv, V domains shown)
VH: B9 VH with F29I, T30K, S57G, N63K, M101D
VL: B1 VL
notes: scFv clone from phage display
B12: suPAR_DB02_G05 (scFv, V domains shown)
VH: B1 VH with D31G, Y32H, H53P, N55G, D61A
VL: B1 VL with R26S
notes: scFv clone from phage display
B13: suPAR_DB02_C11 (scFv, V domains shown)
VH: B1 VH with T28N, T30K, M34I, N57S, D61A
VL: B1 VL with S27Q
notes: scFv clone from phage display
B14: suPAR_DB02_D12 (scFv, V domains shown)
VH: B1 VH with T30S, D31N, N55G, N57S, D61A
VL: B1 VL with Y90S
notes: scFv clone from phage display
B15: suPAR_DB02_E08 (scFv, V domains shown)
VH: B1 VH with T28N, F29I, T30K, D31S, M34I, R98A
VL: B1 VL
notes: scFv clone from phage display
B16: suPAR_DB02_D11 (scFv, V domains shown)
VH: B1 VH with Y27F, T28N, F29I, T30K, M34I, H53P
VL: B1 VL
notes: scFv clone from phage display
B17: suPAR_DB02_C07 (scFv, V domains shown)
VH: B9 VH with F27Y, N28T, Y32S, P53A, S55N, S57D, Q62E, N63R, M101D
VL: B1 VL
notes: scFv clone from phage display
B18: suPAR_DB02_F12 (scFv, V domains shown)
VH: B1 VH with Y27D, T28M, D31G, M34L
VL: B1 VL with N52S
notes: scFv clone from phage display
B19: suPAR_DB02_C06 (scFv, V domains shown)
VH: B1 VH with Y27F, T28N, F29I
VL: B1 VL with R26S, S27Q
notes: scFv clone from phage display
B20: suPAR_DB02_C12 (scFv, V domains shown)
VH: B1 VH with F29L, H53P, N55G, I59S
VL: B1 VL
notes: scFv clone from phage display
B21: suPAR_DB02_D02 (scFv, V domains shown)
VH: B1 VH with Y27D, D31S, N55G, I59S, D61A
VL: B1 VL
notes: scFv clone from phage display
B22: suPAR_DB02_F08 (scFv, V domains shown)
VH: B1 VH with D31G, M34I, H53P, D61A
VL: B1 VL with R26S, V29I
notes: scFv clone from phage display
B23: suPAR_DB02_D03 (scFv, V domains shown)
VH: B1 VH with D31S, Y32H
VL: B1 VL
notes: scFv clone from phage display
B24: suPAR_DB02_E02 (scFv, V domains shown)
VH: B1 VH
VL: B1 VL with N52S, A54Q
notes: scFv clone from phage display
B25: suPAR_DB02_D04 (scFv, V domains shown)
VH: B9 VH with N28T, F29I, T30K, I34M, N54D, S57G, Q62E, N63K, M101D
VL: B1 VL with S24R, S27Q
notes: scFv clone from phage display
B26: suPAR_DB02_F11 (scFv, V domains shown)
VH: B1 VH with D31S, Y32S
VL: B1 VL with S24R, V29I
notes: scFv clone from phage display
B27: suPAR_DB02_D08 (scFv, V domains shown)
VH: B1 VH with D31N
VL: B1 VL with S24R, S27Q
notes: scFv clone from phage display
B28: suPAR_DB02_D05 (scFv, V domains shown)
VH: B1 VH with D31S
VL: B1 VL
notes: scFv clone from phage display
B29: suPAR_DB02_F04 (scFv, V domains shown)
VH: B1 VH with F29L, D31S, M34V, H53P, E54K, N55S, N57D, I59K, D61A, Q62H
VL: B1 VL
notes: scFv clone from phage display
B30: suPAR_DB02_G09 (scFv, V domains shown)
VH: B9 VH with N28T, F29I, T30K, I34M, N54S, S55N, S57A, Y60S, M101D
VL: B1 VL with S24R, R26S
notes: scFv clone from phage display
B31: suPAR_DB02_E05 (scFv, V domains shown)
VH: B9 VH with F29I, T30K, I51V, N54S, S57A, N59D, N63K, M101D
VL: B1 VL
notes: scFv clone from phage display
B32: suPAR_DB02_E07 (scFv, V domains shown)
VH: B9 VH with F27Y, T30N, D31A, I34M, N54H, S57G, N63K, M101D
VL: B1 VL
notes: scFv clone from phage display
B33: suPAR_DB02_F09 (scFv, V domains shown)
VH: B1 VH with D31G, H53P, N55G, N57S, R98G
VL: B1 VL
notes: scFv clone from phage display
B34: suPAR_DB02_C10 (scFv, V domains shown)
VH: B1 VH with M34V, N55G, N57S
VL: B1 VL
notes: scFv clone from phage display
B35: suPAR_DB02_G11 (scFv, V domains shown)
VH: B1 VH with Y27D, D31G, N55G, D61A
VL: B1 VL
notes: scFv clone from phage display
B36: suPAR_DB02_C09 (scFv, V domains shown)
VH: B1 VH with D31G, M48V, W50L, D52N, H53P, E54S, N55D, N57Y, I59T, D61A
VL: B1 VL
notes: scFv clone from phage display

These binders were tested against T1, human soluble urokinase plasminogen activator receptor (suPAR) (human, UniProt Q03405 23-303, limits assumed) (assay: BLI (Octet) off-rate screen of scFv clones).
T1 construct: Column head says only 'human'; also called human suPAR; hsuPAR
T1 sequence (Q03405 23-303 limits assumed): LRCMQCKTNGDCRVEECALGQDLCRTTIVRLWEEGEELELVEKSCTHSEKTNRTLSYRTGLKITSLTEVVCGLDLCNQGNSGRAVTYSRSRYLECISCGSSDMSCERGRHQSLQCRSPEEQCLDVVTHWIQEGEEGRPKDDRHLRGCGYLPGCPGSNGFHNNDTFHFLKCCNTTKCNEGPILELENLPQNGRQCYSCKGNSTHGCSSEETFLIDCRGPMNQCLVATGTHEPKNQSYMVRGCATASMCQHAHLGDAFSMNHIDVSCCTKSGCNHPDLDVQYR

Binder	koff [s⁻¹]
B1	0.003
B2	0.00239
B3	0.00178
B4	0.00311
B5	0.00423
B6	0.00416
B7	0.002
B8	0.00579
B9	0.00495
B10	0.00562
B11	0.00473
B12	0.00242
B13	0.0049
B14	0.00611
B15	0.0031
B16	0.00415
B17	0.0026
B18	0.00494

Binder	koff [s⁻¹]
B19	0.00475
B20	0.00319
B21	0.00436
B22	0.0021
B23	0.0055
B24	0.00438
B25	0.0041
B26	0.00198
B27	0.00202
B28	0.00358
B29	0.00384
B30	0.00733
B31	0.00239
B32	0.00392
B33	0.00166
B34	0.00257
B35	0.00561
B36	0.00387

The binders below were run against T2, cynomolgus soluble urokinase plasminogen activator receptor (suPAR) (cynomolgus, UniProt Q9GK78 23-303, limits assumed) (assay: BLI (Octet) off-rate screen of scFv clones).
T2 construct: Column head says only 'cynomologus'; also called cynomolgus suPAR; cynomolgus uPAR
T2 sequence (Q9GK78 23-303 limits assumed): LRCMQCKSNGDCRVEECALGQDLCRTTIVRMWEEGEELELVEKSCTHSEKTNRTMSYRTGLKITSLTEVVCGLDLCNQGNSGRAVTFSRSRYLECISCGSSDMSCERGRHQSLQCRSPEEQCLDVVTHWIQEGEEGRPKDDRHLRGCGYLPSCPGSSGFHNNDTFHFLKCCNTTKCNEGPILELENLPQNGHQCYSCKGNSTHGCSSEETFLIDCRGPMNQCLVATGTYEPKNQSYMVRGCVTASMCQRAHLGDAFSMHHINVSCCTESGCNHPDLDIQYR

Binder	koff [s⁻¹]
B1	4.7e-07
B2	0.000295
B3	0.000381
B4	0.000217
B5	0.000376
B6	0.00051
B7	0.000384
B8	0.000498
B9	0.000174
B10	0.00043
B11	0.00021
B12	0.000521
B13	0.0004
B14	0.0038
B15	0.000363
B16	0.000265
B18	9.82e-05
B19	0.000141

Binder	koff [s⁻¹]
B20	0.000582
B21	2.49e-05
B22	2.47e-05
B23	0.000188
B24	0.000189
B25	0.000281
B26	0.000613
B27	0.000345
B28	0.000305
B29	0.000453
B30	0.00025
B31	0.00146
B32	0.000177
B33	0.000624
B34	0.000198
B35	0.00013
B36	0.000335
